From patent CN111995674A (INST MILITARY MEDICINE ACADEMY MILITARY SCIENCES PLA, dated 2020)

Target: SARS-CoV-2 Spike蛋白 (去除末端19个氨基酸), 新冠假病毒表面 (SARS-CoV-2, UniProt P0DTC2 14-1254)
Experiment: cell-based or functional assay

B1: 人鼠嵌合全抗体mhC3 (antibody, V domains shown)
VH: EVQLVESGGDLVKPGGSLKLSCAASGFTFNTYAMNWVRQTPGKGLEWVARIRSKSNNYATYYADSVKDRFTISRDDSQSMLYLQMNNLKTEDTAMYYCVTPYYGNYADWFTYWGQGTSVTVSS
VL: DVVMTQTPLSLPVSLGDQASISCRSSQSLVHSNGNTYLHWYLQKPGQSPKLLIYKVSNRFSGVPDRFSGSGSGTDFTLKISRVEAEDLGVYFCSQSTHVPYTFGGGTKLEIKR
notes: also called mhC3抗体; C3 (图5、图6)
- 中和新冠假病毒 EC50 (luciferase, Huh7细胞): 0.223 µg/mL
